Changes are numbered by the printed parent chain. Numbers in names are those of the source. No end group written: not given here. *: point of attachment. Fluorescein(5-NHCOCH2) = O=C(C*)Nc1ccc2c(c1)C(=O)OC21c2ccc(O)cc2Oc2cc(O)ccc21
T1: human coreTAPL D292A, C-terminal mVenus-His10 fusion (human) (UniProt Q9NP78)
T1 sequence: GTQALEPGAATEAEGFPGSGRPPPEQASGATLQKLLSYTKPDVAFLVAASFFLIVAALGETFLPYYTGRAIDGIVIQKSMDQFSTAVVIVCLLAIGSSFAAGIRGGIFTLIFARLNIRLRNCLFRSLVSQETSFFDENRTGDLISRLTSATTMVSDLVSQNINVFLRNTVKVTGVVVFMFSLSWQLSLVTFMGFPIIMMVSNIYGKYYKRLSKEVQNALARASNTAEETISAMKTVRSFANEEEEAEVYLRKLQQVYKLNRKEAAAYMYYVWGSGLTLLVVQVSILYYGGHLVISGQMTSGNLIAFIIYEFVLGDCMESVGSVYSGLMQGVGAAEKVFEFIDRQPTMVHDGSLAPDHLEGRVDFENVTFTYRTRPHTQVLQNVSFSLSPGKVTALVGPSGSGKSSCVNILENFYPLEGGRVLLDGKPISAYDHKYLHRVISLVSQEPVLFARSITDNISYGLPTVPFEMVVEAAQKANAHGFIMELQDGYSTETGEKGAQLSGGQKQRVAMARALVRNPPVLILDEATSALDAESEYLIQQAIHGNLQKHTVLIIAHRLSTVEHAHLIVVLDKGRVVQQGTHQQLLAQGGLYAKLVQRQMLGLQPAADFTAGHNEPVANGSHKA

T2: human coreTAPL R288A, C-terminal mVenus-His10 fusion (human) (UniProt Q9NP78)
T2 sequence: T1 sequence with R146A, A150D

T3: human coreTAPL wildtype (transporter associated with antigen processing-like, ABCB9), C-terminal mVenus-His10 fusion (human) (UniProt Q9NP78)
T3 sequence: T1 sequence with A150D

B1: peptide C4^Atto-655 (RRYC^Atto-655KSTEL) (peptide)
peptide: RRYC(Atto‑655)KSTEL
notes: synthetic 9-mer peptide C4; source: synthetic peptide (Fmoc solid-phase synthesis), labelled, purified by reversed-phase HPLC
B2: human coreTAPL D278A, C-terminal mVenus-His10 fusion (complex, UniProt Q9NP78 143-766, looked up)
chain: T1 sequence with D136A, A150D
notes: human TAPL (ABCB9), coreTAPL, amino acids 143-766; Mutant of the mVenus fusion construct; TEV site between coreTAPL and mVenus; also called D278A^mV; source: Sf21 insect cells (baculovirus), purified by Ni-NTA after solubilisation in GDN or DDM; reconstituted into liposomes for transport and hydrolysis assays; not shown: mVenus, C-terminal, kept
B3: human coreTAPL D292A, C-terminal mVenus-His10 fusion (complex, UniProt Q9NP78 143-766, looked up)
chain: T1 sequence
notes: human TAPL (ABCB9), coreTAPL, amino acids 143-766; Mutant of the mVenus fusion construct; TEV site between coreTAPL and mVenus; also called D292A^mV; source: Sf21 insect cells (baculovirus), purified by Ni-NTA after solubilisation in GDN or DDM; reconstituted into liposomes for transport and hydrolysis assays; not shown: mVenus, C-terminal, kept
B4: human coreTAPL wildtype (transporter associated with antigen processing-like, ABCB9), C-terminal mVenus-His10 fusion (complex, UniProt Q9NP78 143-766, looked up)
chain: T1 sequence with A150D
notes: human TAPL (ABCB9), coreTAPL without the N-terminal TMD0, amino acids 143-766; A tobacco etch virus cleavage site lies between coreTAPL and mVenus; no cleavage is reported for the mVenus constructs, so the His10 behind mVenus was probably still there; also called wt; wt TAPL; source: Sf21 insect cells (baculovirus), purified by Ni-NTA after solubilisation in GDN or DDM; reconstituted into …
B5: human coreTAPL R288A, C-terminal mVenus-His10 fusion (complex, UniProt Q9NP78 143-766, looked up)
chain: T1 sequence with R146A, A150D
notes: human TAPL (ABCB9), coreTAPL, amino acids 143-766; Mutant of the mVenus fusion construct; TEV site between coreTAPL and mVenus; also called R288A^mV; source: Sf21 insect cells (baculovirus), purified by Ni-NTA after solubilisation in GDN or DDM; reconstituted into liposomes for transport and hydrolysis assays; not shown: mVenus, C-terminal, kept

Key:
[1] = biological target: human coreTAPL (TAPL, ABCB9) (Homo sapiens, UniProt Q9NP78, D278A); test: biochemical
Chain of human coreTAPL (TAPL, ABCB9) (Homo sapiens, UniProt Q9NP78, D278A) (Q9NP78 143-766 D278A): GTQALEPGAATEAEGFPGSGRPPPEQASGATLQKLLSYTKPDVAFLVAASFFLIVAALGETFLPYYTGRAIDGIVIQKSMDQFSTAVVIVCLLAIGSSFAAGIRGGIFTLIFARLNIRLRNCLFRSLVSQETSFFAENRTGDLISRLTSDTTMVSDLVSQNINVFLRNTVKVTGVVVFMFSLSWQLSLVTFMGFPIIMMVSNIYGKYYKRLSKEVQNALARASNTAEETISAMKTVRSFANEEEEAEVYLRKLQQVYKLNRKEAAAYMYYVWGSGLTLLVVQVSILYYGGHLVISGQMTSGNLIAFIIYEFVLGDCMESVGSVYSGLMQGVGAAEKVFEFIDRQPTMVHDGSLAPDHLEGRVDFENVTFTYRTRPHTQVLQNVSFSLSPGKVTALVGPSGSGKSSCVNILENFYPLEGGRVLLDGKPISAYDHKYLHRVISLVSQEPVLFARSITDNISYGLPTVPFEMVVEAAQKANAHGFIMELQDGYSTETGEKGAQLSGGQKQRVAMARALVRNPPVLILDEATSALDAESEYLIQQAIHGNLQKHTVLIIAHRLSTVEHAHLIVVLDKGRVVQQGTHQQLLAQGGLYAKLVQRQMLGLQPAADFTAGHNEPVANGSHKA

[2] = biological target: human coreTAPL (TAPL, ABCB9) (Homo sapiens, UniProt Q9NP78, R288A); test: biochemical
Chain of human coreTAPL (TAPL, ABCB9) (Homo sapiens, UniProt Q9NP78, R288A) (Q9NP78 143-766 R288A): as the sequence (Q9NP78 143-766 D278A) above, with A136D, R146A counted along it

[3] = biological target: human coreTAPL (TAPL, ABCB9) (Homo sapiens, UniProt Q9NP78, D292A); test: biochemical
[4] = biological target: human coreTAPL (TAPL, ABCB9) (Homo sapiens, UniProt Q9NP78); test: biochemical
Chain of human coreTAPL (TAPL, ABCB9) (Homo sapiens, UniProt Q9NP78) (Q9NP78 143-766): as the sequence (Q9NP78 143-766 D278A) above, with A136D counted along it

[5] = biological target: B4; test: MST; 5 nM C4^Atto-655 with 5 μM GDN-purified TAPL variant in GDN-containing elution buffer, 22 °C, single concentration; conditions: both partners purified
[6] = biological target: B2; test: as above; conditions: both partners purified
[7] = biological target: B5; test: as above; conditions: both partners purified
[8] = biological target: B3; test: as above; conditions: both partners purified
[9] = biological target: T1, human coreTAPL D292A, C-terminal mVenus-His10 fusion (human)
[10] = biological target: T2, human coreTAPL R288A, C-terminal mVenus-His10 fusion (human)
[11] = biological target: T3, human coreTAPL wildtype (transporter associated with antigen processing-like, ABCB9), C-terminal mVenus-His10 fusion (human)
[12] = biological target: the molecule itself; test: SEC; analytical, Superose 6 Increase 3.2/300, 20 mM Hepes, 140 mM NaCl, 100 mM imidazole, 15% glycerol, 0.1% GDN, pH 7.5, 4 °C; absorbance at 280 and 515 nm
[13] = biological target: T2, human coreTAPL R288A, C-terminal mVenus-His10 fusion (human); remark: listed apart in the source

## Nc1ncnc2c1ncn2[C@@H]1O[C@H](COP(=O)(O)OP(=O)(O)OP(=O)(O)O)[C@@H](O)[C@H]1O [ATP]
[1]
  IC50: 900 ± 200 nM
[2]
  IC50: 5600 ± 1700 nM
[3]
  IC50: 1300 ± 800 nM
[4]
  IC50: 1900 ± 1300 nM

## B1
[5]
  binding result: binds
[6]
  binding result: binds
[7]
  binding result: binds
[8]
  binding result: binds

## RRYQNSTC(Fluorescein(5-NHCOCH2))L [peptide NST^FL (RRYQNSTC^FLL)]
[9]
  K (m,peptide) of peptide transport into proteoliposomes (0 to 30 μM NST^FL, 10 min, 37 °C): 2.5 µM
[10]
  K (m,peptide) of peptide transport into proteoliposomes (0 to 30 μM NST^FL, 10 min, 37 °C): 2.2 µM
[11]
  K (m,peptide) of peptide transport into proteoliposomes (0 to 30 μM NST^FL, 10 min, 37 °C): 4.1 µM

## B2
[12]
  binding result: binds

## B3
[12]
  binding result: binds

## B4
[12]
  binding result: binds

## B5
[12]
  binding result: binds

## RRYQKSTEL [peptide R9L (…)]
[13]
  IC50 of the decrease of ATP hydrolysis in proteoliposomes by R9L (0–300 μM, 0.3 mM ATP, 15 min, 37 °C): 9500 nM
